This note sets out measurements from US7825091B2, “Modification of feeding behaviour” (Imperial Innovations Limited, priority 2003, dated 2010).

No end group written: not given here.

The test system of assay [1] is fos-like immunoreactivity. Kind of assay: Fos-like immunoreactivity (FLI) immunohistochemistry in hypothalamus and brainstem after IP injection. The assay is classed as in vivo, rat. The conditions noted are these: IP 15 nmol/kg, 90 minutes.
From the text: The brains were removed and post-fixed overnight in PBF and then transferred to PB-sucrose (20% w/v) overnight. 40 μm coronal sections of brain and brainstem were cut on a freezing microtome and stained for fos-like immunoreactivity (FLI) by the avitin-biotin-peroxidase method. The sections were then mounted on poly-L-lysine-coated slides, dehydrated in increasing concentrations of ethanol (50-100%), delipidated in xylene and coverslipped using DPX mountant. Slides were examined for FLI-positive nuclei using a light microscope (Nikon Eclipse E-800) and images captured using a microimager (Xillix MicroImager). The numbers of FLI-positive nuclei in the hypothalamus and brainstem were counted by an independent member of the research team who was blinded to the experimental groups. The average number of FLI-positive nuclei per section was calculated and expressed as an integer for each animal.
In a further assay the target is T1, GLP-1 receptor (Rattus norvegicus, UniProt P32301).
T1 construct: from tissue; host or cells: rat hypothalamus (membrane preparation)
T1 sequence (P32301 22-463): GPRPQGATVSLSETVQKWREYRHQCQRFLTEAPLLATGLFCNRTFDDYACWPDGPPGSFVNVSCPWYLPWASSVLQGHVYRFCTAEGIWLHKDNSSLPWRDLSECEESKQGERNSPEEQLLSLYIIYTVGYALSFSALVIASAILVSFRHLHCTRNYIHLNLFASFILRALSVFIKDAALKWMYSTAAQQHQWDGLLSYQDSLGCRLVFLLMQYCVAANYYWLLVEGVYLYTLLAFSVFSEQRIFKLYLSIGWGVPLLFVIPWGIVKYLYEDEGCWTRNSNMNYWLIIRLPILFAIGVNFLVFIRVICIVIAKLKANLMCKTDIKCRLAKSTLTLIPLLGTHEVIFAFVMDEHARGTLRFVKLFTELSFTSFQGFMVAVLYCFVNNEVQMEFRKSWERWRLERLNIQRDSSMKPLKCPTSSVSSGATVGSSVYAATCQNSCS
Kind of assay: Coadministration of exendin-(9-39) with GLP-1 or OXM, ICV and iPVN, food intake (study 4). The assay is classed as in vivo.

Assay [2] concerns the target T2, Arcuate nucleus GLP-1 receptors (Rattus norvegicus, UniProt P32301).
T2 construct: 24-hour fasted rats received an iARC injection of saline or exendin9-39 (5 nmoles); from tissue; host or cells: live rat, hypothalamic arcuate nucleus
T2 sequence (P32301 22-463): T1 sequence (P32301 22-463)
Kind of assay: iARC exendin 9-39 prior to IP OXM or GLP-1, 1 hour food intake. It counts as in vivo. The text has this: Rats cannulated into the arcuate nucleus were randomised into 6 groups (n=10-12 per group). […] The injection details are described in Table 1 below.

Assay [3] can be described thus: ICV injection, food intake in 24-h fasted rats (studies 1a, 2a). Particulars: ICV 3 nmol, vs saline. It counts as in vivo, rat. The text has this:
(§1) Animals were handled daily after recovery from surgery until completion of the studies.
(§2) Animals had permanent stainless steel guide cannulas (Plastics One, Roanoke, Va.) stereotactically implanted ICV (intracerebraventricularly) or iPVN (into the hypothalamic paraventricular nucleus).

A short description of assay [4]: iPVN injection, food intake in 24-h fasted rats (studies 1b, 2b). The assay is classed as in vivo, rat. The protocol: as §1, §2
Therefore, exendin-4 was injected iPVN at a dose of 0.03 nmol.

“CCK: positive control for gastric emptying at the two-hour time-point (DYMGWMDF; ends and bridges not checked; UniProt P06307 96-103, looked up)”: in assay [1], the “FLI staining in the brainstem (NTS, area postrema)” value is on record as “caused dense staining of FLI”.

Take exendin-(9-39): in the assay with GLP-1 receptor (ICV, exendin-(9-39) 30 nmol with GLP-1 3 nmol, ratio 10:1), the “effect of coadministration on anorectic effects of GLP-1” value was “blocked the anorectic effects of GLP-1”. For the same substance, the “effect of coadministration on anorectic effect of OXM” value in the assay with GLP-1 receptor (ICV, exendin-(9-39) 30 nmol with OXM 3 nmol) is listed as “attenuation of the anorectic effect of OXM”. Further, the “effect of coinjection on anorectic effects of GLP-1” value in the assay with GLP-1 receptor (iPVN, exendin-(9-39) 10 nmol with GLP-1 1 nmol) is given as “blocked”. For the same substance, the “effect of coinjection on anorectic effects of OXM” value in the assay with GLP-1 receptor (iPVN, exendin-(9-39) 10 nmol with OXM 1 nmol) was “blocked”. Further, the “effect on anorexia caused by IP administration of OXM” value in assay [2] (exendin 9-39 into the ARC, dose printed 300 nmol/kg, IP OXM 30 nmol/kg) is “blocked”. For the same substance, in assay [2] (iARC exendin 9-39 (5 nmoles) or saline 15 minutes prior to IP OXM (30 nmol/kg), GLP-1 (30 nmol/kg) or saline), the “Food intake (g), 1 hour” value amounted to 9.0 g. Moreover, the “effect on inhibition of food intake by IP GLP-1” value in assay [2] (prior iARC exendin 9-39, IP GLP-1 30 nmol/kg) was “not affected”.

With glucagon, in assay [3], the “food intake (refeeding) after ICV injection” value was “failed to affect food intake at any time point”. The “food intake after iPVN injection” value in assay [4] (iPVN 1 nmol, any time point) is on record as “failed to affect food intake at any time point”.

On to exendin-4, for which the “food intake (refeeding) after iPVN injection” value in assay [4] (iPVN 0.03 nmol) is listed as “inhibited reseeding”.
